Measured values as given in the supplement of paper PMC9112550, “Optimization of the antimicrobial peptide Bac7 by deep mutational scanning” (BMC Biology, 2022).

System: Escherichia coli TOP10
Test: shrunken log2 fold change of peptide-encoding DNA abundance (4.5 h post-induction vs induction); higher = less antimicrobial activity (less host growth inhibition)
Conditions: time post-induction: 4.5 h; library: site-saturation at positions 5, 18, 19, 20
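Note: peptides expressed intracellularly from a pBAD plasmid library in pooled LB shake-flask culture, induced with 0.3% L-arabinose, DNA abundance read by NGS, three biological replicates, DESeq2 with apeglm shrinkage.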

## RRIRYRPPRLPRPRPRPRADPRP
  shrunken log2 fold change: 0.0349

## RRIRTRPPRLPRPRPRPPKYPRP
  shrunken log2 fold change: -0.103

## RRIRTRPPRLPRPRPRPMSSPRP
  shrunken log2 fold change: -0.00458

## RRIRYRPPRLPRPRPRPERIPRP
  shrunken log2 fold change: -0.21

## RRIRQRPPRLPRPRPRPKRSPRP
  shrunken log2 fold change: 0.0578

## RRIRKRPPRLPRPRPRPHFEPRP
  shrunken log2 fold change: 0.101

## RRIRRRPPRLPRPRPRPQHRPRP
  shrunken log2 fold change: 0.266

## RRIRLRPPRLPRPRPRPNKSPRP
  shrunken log2 fold change: -0.354

## RRIRKRPPRLPRPRPRPPYDPRP
  shrunken log2 fold change: -0.0658

## RRIRERPPRLPRPRPRPANHPRP
  shrunken log2 fold change: -0.00846

## RRIRARPPRLPRPRPRPNTIPRP
  shrunken log2 fold change: -0.0317

## RRIRARPPRLPRPRPRPPNEPRP
  shrunken log2 fold change: 0.716

## RRIRTRPPRLPRPRPRPECTPRP
  shrunken log2 fold change: 0.0491

## RRIRARPPRLPRPRPRPLSNPRP
  shrunken log2 fold change: 0.25

## RRIRKRPPRLPRPRPRPPECPRP
  shrunken log2 fold change: 0.0514

## RRIRARPPRLPRPRPRPVHKPRP
  shrunken log2 fold change: 0.2

## RRIRERPPRLPRPRPRPGWAPRP
  shrunken log2 fold change: 0.487

## RRIRDRPPRLPRPRPRPKYRPRP
  shrunken log2 fold change: -0.0164

## RRIRGRPPRLPRPRPRPTAPPRP
  shrunken log2 fold change: 0.71

## RRIRRRPPRLPRPRPRPAAHPRP
  shrunken log2 fold change: 0.361

## RRIRWRPPRLPRPRPRPRVNPRP
  shrunken log2 fold change: 0.478

## RRIRCRPPRLPRPRPRPHTQPRP
  shrunken log2 fold change: -0.55

## RRIRKRPPRLPRPRPRPTVTPRP
  shrunken log2 fold change: 0.229

## RRIRERPPRLPRPRPRPYLCPRP
  shrunken log2 fold change: -0.554

## RRIRMRPPRLPRPRPRPMICPRP
  shrunken log2 fold change: -0.0412

## RRIRRRPPRLPRPRPRPKKPPRP
  shrunken log2 fold change: 0.974

## RRIRQRPPRLPRPRPRPKVAPRP
  shrunken log2 fold change: -0.00277

## RRIRGRPPRLPRPRPRPVWFPRP
  shrunken log2 fold change: 0.239

## RRIRTRPPRLPRPRPRPGLAPRP
  shrunken log2 fold change: 0.308

## RRIRLRPPRLPRPRPRPQCFPRP
  shrunken log2 fold change: -0.0127

## RRIRERPPRLPRPRPRPYPNPRP
  shrunken log2 fold change: -1.19

## RRIRVRPPRLPRPRPRPANWPRP
  shrunken log2 fold change: 0.224

## RRIRARPPRLPRPRPRPTFDPRP
  shrunken log2 fold change: 0.399

## RRIRFRPPRLPRPRPRPYDTPRP
  shrunken log2 fold change: -0.106

## RRIRFRPPRLPRPRPRPAMIPRP
  shrunken log2 fold change: -0.397

## RRIRDRPPRLPRPRPRPGKWPRP
  shrunken log2 fold change: -0.00965

## RRIRARPPRLPRPRPRPLNWPRP
  shrunken log2 fold change: 0.245

## RRIRSRPPRLPRPRPRPPIDPRP
  shrunken log2 fold change: -0.0487

## RRIRPRPPRLPRPRPRPKEVPRP
  shrunken log2 fold change: -0.0501

## RRIRVRPPRLPRPRPRPFGQPRP
  shrunken log2 fold change: -0.222

## RRIRARPPRLPRPRPRPCPVPRP
  shrunken log2 fold change: 0.0768

## RRIRSRPPRLPRPRPRPAVTPRP
  shrunken log2 fold change: 0.293

## RRIRQRPPRLPRPRPRPVDYPRP
  shrunken log2 fold change: 0.0237

## RRIRNRPPRLPRPRPRPQNRPRP
  shrunken log2 fold change: -0.184

## RRIRKRPPRLPRPRPRPEEFPRP
  shrunken log2 fold change: 0.227

## RRIRWRPPRLPRPRPRPFTWPRP
  shrunken log2 fold change: -0.119

## RRIRWRPPRLPRPRPRPSKIPRP
  shrunken log2 fold change: -0.152

## RRIRQRPPRLPRPRPRPLQFPRP
  shrunken log2 fold change: -0.168

## RRIRVRPPRLPRPRPRPGWVPRP
  shrunken log2 fold change: 0.0954

## RRIRYRPPRLPRPRPRPQPRPRP
  shrunken log2 fold change: 0.463

## RRIRARPPRLPRPRPRPYIGPRP
  shrunken log2 fold change: 0.00388

## RRIRVRPPRLPRPRPRPAIGPRP
  shrunken log2 fold change: 0.045

## RRIRSRPPRLPRPRPRPGPCPRP
  shrunken log2 fold change: 0.0781

## RRIRPRPPRLPRPRPRPSTLPRP
  shrunken log2 fold change: -0.139

## RRIRTRPPRLPRPRPRPIWRPRP
  shrunken log2 fold change: -0.111

## RRIRDRPPRLPRPRPRPMWMPRP
  shrunken log2 fold change: 0.149

## RRIRYRPPRLPRPRPRPVFKPRP
  shrunken log2 fold change: -0.238

## RRIRHRPPRLPRPRPRPTGIPRP
  shrunken log2 fold change: -0.0208

## RRIRMRPPRLPRPRPRPNLCPRP
  shrunken log2 fold change: 0.015

## RRIRNRPPRLPRPRPRPCWIPRP
  shrunken log2 fold change: -0.00906

## RRIRLRPPRLPRPRPRPIVQPRP
  shrunken log2 fold change: -1.06

## RRIRWRPPRLPRPRPRPIGVPRP
  shrunken log2 fold change: 0.0389

## RRIRPRPPRLPRPRPRPPHPPRP
  shrunken log2 fold change: 0.292

## RRIRVRPPRLPRPRPRPMGRPRP
  shrunken log2 fold change: -0.0203

## RRIRVRPPRLPRPRPRPSPIPRP
  shrunken log2 fold change: -0.324

## RRIRPRPPRLPRPRPRPMAFPRP
  shrunken log2 fold change: 0.0207

## RRIRMRPPRLPRPRPRPYKHPRP
  shrunken log2 fold change: -0.872

## RRIRIRPPRLPRPRPRPLMAPRP
  shrunken log2 fold change: -0.408

## RRIRERPPRLPRPRPRPYHFPRP
  shrunken log2 fold change: -0.177

## RRIRRRPPRLPRPRPRPPRTPRP
  shrunken log2 fold change: 1.16

## RRIRLRPPRLPRPRPRPLMNPRP
  shrunken log2 fold change: -0.253

## RRIRQRPPRLPRPRPRPGPCPRP
  shrunken log2 fold change: -0.0469

## RRIRIRPPRLPRPRPRPAGQPRP
  shrunken log2 fold change: 0.0455

## RRIRDRPPRLPRPRPRPLDTPRP
  shrunken log2 fold change: 0.0803

## RRIRERPPRLPRPRPRPELGPRP
  shrunken log2 fold change: 0.0169

## RRIRLRPPRLPRPRPRPQKCPRP
  shrunken log2 fold change: -0.222

## RRIRYRPPRLPRPRPRPIRPPRP
  shrunken log2 fold change: -0.129

## RRIRYRPPRLPRPRPRPGNFPRP
  shrunken log2 fold change: -0.307

## RRIRERPPRLPRPRPRPYSWPRP
  shrunken log2 fold change: -0.486

## RRIRVRPPRLPRPRPRPNISPRP
  shrunken log2 fold change: -0.321

## RRIRSRPPRLPRPRPRPNMMPRP
  shrunken log2 fold change: -0.166

## RRIRDRPPRLPRPRPRPQHRPRP
  shrunken log2 fold change: -0.198

## RRIRVRPPRLPRPRPRPIQFPRP
  shrunken log2 fold change: -0.0307

## RRIRFRPPRLPRPRPRPWPWPRP
  shrunken log2 fold change: -0.00192

## RRIRQRPPRLPRPRPRPDEDPRP
  shrunken log2 fold change: -0.0326

## RRIRSRPPRLPRPRPRPIHQPRP
  shrunken log2 fold change: -0.114

## RRIRARPPRLPRPRPRPFMYPRP
  shrunken log2 fold change: -0.225

## RRIRCRPPRLPRPRPRPMKEPRP
  shrunken log2 fold change: -0.18

## RRIRWRPPRLPRPRPRPFCPPRP
  shrunken log2 fold change: -0.318

## RRIRMRPPRLPRPRPRPHCYPRP
  shrunken log2 fold change: -0.0522

## RRIRDRPPRLPRPRPRPYIQPRP
  shrunken log2 fold change: -0.161

## RRIRARPPRLPRPRPRPWLFPRP
  shrunken log2 fold change: 0.547

## RRIRWRPPRLPRPRPRPYTDPRP
  shrunken log2 fold change: 0.102

## RRIRPRPPRLPRPRPRPITHPRP
  shrunken log2 fold change: -0.117

## RRIRTRPPRLPRPRPRPGFKPRP
  shrunken log2 fold change: -0.0634

## RRIRFRPPRLPRPRPRPCWCPRP
  shrunken log2 fold change: -0.00345

## RRIRRRPPRLPRPRPRPNNRPRP
  shrunken log2 fold change: -0.0987

## RRIRKRPPRLPRPRPRPTCMPRP
  shrunken log2 fold change: 0.576

## RRIRIRPPRLPRPRPRPWTNPRP
  shrunken log2 fold change: -0.00152

## RRIRNRPPRLPRPRPRPDFTPRP
  shrunken log2 fold change: 0.0959

## RRIRPRPPRLPRPRPRPVPTPRP
  shrunken log2 fold change: 0.424

## RRIRMRPPRLPRPRPRPSIEPRP
  shrunken log2 fold change: 0.0914

## RRIRERPPRLPRPRPRPKSFPRP
  shrunken log2 fold change: 0.0203

## RRIRPRPPRLPRPRPRPLSFPRP
  shrunken log2 fold change: -0.132

## RRIRIRPPRLPRPRPRPQALPRP
  shrunken log2 fold change: -0.0788

## RRIRQRPPRLPRPRPRPFDQPRP
  shrunken log2 fold change: -0.0498

## RRIRPRPPRLPRPRPRPMRRPRP
  shrunken log2 fold change: 0.537

## RRIRDRPPRLPRPRPRPVHWPRP
  shrunken log2 fold change: 0.31

## RRIRGRPPRLPRPRPRPCYYPRP
  shrunken log2 fold change: -0.00676

## RRIRYRPPRLPRPRPRPTVKPRP
  shrunken log2 fold change: -0.428

## RRIRPRPPRLPRPRPRPLKTPRP
  shrunken log2 fold change: -0.000587

## RRIRYRPPRLPRPRPRPKVHPRP
  shrunken log2 fold change: -0.677

## RRIRKRPPRLPRPRPRPNLYPRP
  shrunken log2 fold change: -0.111

## RRIRWRPPRLPRPRPRPYLPPRP
  shrunken log2 fold change: -0.826

## RRIRERPPRLPRPRPRPRCIPRP
  shrunken log2 fold change: -0.425

## RRIRFRPPRLPRPRPRPPAEPRP
  shrunken log2 fold change: 0.606

## RRIRFRPPRLPRPRPRPDDDPRP
  shrunken log2 fold change: 0.114

## RRIRPRPPRLPRPRPRPSWAPRP
  shrunken log2 fold change: 0.0666

## RRIRARPPRLPRPRPRPCIYPRP
  shrunken log2 fold change: -0.0979

## RRIRRRPPRLPRPRPRPHRGPRP
  shrunken log2 fold change: -0.0548

## RRIRFRPPRLPRPRPRPFYIPRP
  shrunken log2 fold change: -0.489

## RRIRYRPPRLPRPRPRPTHTPRP
  shrunken log2 fold change: 0.049

## RRIRFRPPRLPRPRPRPSCRPRP
  shrunken log2 fold change: -0.145

## RRIRFRPPRLPRPRPRPVYGPRP
  shrunken log2 fold change: -0.286

## RRIRCRPPRLPRPRPRPMEPPRP
  shrunken log2 fold change: 0.0774

## RRIRWRPPRLPRPRPRPICWPRP
  shrunken log2 fold change: 0.646

## RRIRQRPPRLPRPRPRPYNCPRP
  shrunken log2 fold change: -0.92

## RRIRPRPPRLPRPRPRPNFWPRP
  shrunken log2 fold change: 0.153

## RRIRNRPPRLPRPRPRPSWWPRP
  shrunken log2 fold change: 0.28

## RRIRPRPPRLPRPRPRPCSDPRP
  shrunken log2 fold change: -0.131

## RRIRMRPPRLPRPRPRPQAEPRP
  shrunken log2 fold change: 3.28

## RRIRDRPPRLPRPRPRPSYWPRP
  shrunken log2 fold change: -0.0689

## RRIRLRPPRLPRPRPRPHGSPRP
  shrunken log2 fold change: -0.0692

## RRIRNRPPRLPRPRPRPEHQPRP
  shrunken log2 fold change: -0.029

## RRIRYRPPRLPRPRPRPMIWPRP
  shrunken log2 fold change: -0.00195

## RRIRLRPPRLPRPRPRPHWGPRP
  shrunken log2 fold change: 0.0796

## RRIRQRPPRLPRPRPRPWFYPRP
  shrunken log2 fold change: -0.373

## RRIRVRPPRLPRPRPRPNPPPRP
  shrunken log2 fold change: 0.231

## RRIRGRPPRLPRPRPRPNHVPRP
  shrunken log2 fold change: 0.425

## RRIRGRPPRLPRPRPRPRLRPRP
  shrunken log2 fold change: 0.87

## RRIRHRPPRLPRPRPRPINWPRP
  shrunken log2 fold change: -0.35

## RRIRIRPPRLPRPRPRPSYLPRP
  shrunken log2 fold change: -0.831

## RRIRCRPPRLPRPRPRPNSLPRP
  shrunken log2 fold change: -0.0801

## RRIRARPPRLPRPRPRPFNLPRP
  shrunken log2 fold change: -0.173

## RRIRERPPRLPRPRPRPAAPPRP
  shrunken log2 fold change: 0.504

## RRIRRRPPRLPRPRPRPQIHPRP
  shrunken log2 fold change: -0.515

## RRIRERPPRLPRPRPRPTVWPRP
  shrunken log2 fold change: 0.217

## RRIRERPPRLPRPRPRPIKLPRP
  shrunken log2 fold change: -0.481

## RRIRMRPPRLPRPRPRPQDQPRP
  shrunken log2 fold change: 0.228

## RRIRARPPRLPRPRPRPPGPPRP
  shrunken log2 fold change: 0.703
